Measurements taken from US20190241659A1.

Tests used:
[1] = target: human PD-L1 on the cell surface (PD-L1 transfected HEK293, ES2, CHO PD-L1, engineered CHO cells) (human) (UniProt Q9NZQ7); test: flow cytometry on engineered CHO cells; four-parameter sigmoidal fit, ECf
[2] = target: human OX40 and human PD-L1 expressed together on engineered CHO cells (human) (UniProt P43489); test: flow cytometry on engineered CHO cells, AF647 anti-human IgG; apparent KD, one site specific binding fit
[3] = target: human PD-L1 on the cell surface (PD-L1 transfected HEK293, ES2, CHO PD-L1, engineered CHO cells) (human) (UniProt Q9NZQ7); test: as above
[4] = target: human PD-L1 on the cell surface (PD-L1 transfected HEK293, ES2, CHO PD-L1, engineered CHO cells) (human) (UniProt Q9NZQ7); test: flow cytometry on engineered CHO cells; four-parameter sigmoidal fit, 50% occupancy

human PD-L1 on the cell surface (PD-L1 transfected HEK293, ES2, CHO PD-L1, engineered CHO cells) (human), sequence (Q9NZQ7 19-290, change not shown): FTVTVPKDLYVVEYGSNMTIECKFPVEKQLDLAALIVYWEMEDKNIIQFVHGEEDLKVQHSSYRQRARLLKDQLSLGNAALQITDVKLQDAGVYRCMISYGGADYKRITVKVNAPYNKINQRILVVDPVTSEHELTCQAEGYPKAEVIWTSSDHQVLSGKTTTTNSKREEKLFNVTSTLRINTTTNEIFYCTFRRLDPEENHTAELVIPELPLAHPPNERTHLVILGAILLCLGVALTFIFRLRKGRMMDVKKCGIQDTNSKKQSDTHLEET

MEDI5615 (PD-L1/OX40L BFP2 bispecific molecule, IgG4P)
concentration for 20% occupancy (EC20) [1]: 0.022 nM
concentration for 90% occupancy (EC90) [1]: 0.79 nM
Kd [2]: 0.27 nM
Kd [3]: 0.088 nM
EC50 [4]: 0.088 nM
